Measurements as given in publication PMC2213439.
Values belong to the substance of their own block, whether it stands above or below them.

Columns and labels:
Test in all cases: cell adhesion assay
[1] = target: E-cadherin-Fc D44A (human)
[2] = target: E-cadherin-Fc E31A (human)
[3] = target: E-cadherin-Fc E31D (human)
[4] = target: E-cadherin-Fc E56A (human)
[5] = target: E-cadherin-Fc E89A (human)
[6] = target: E-cadherin-Fc K25A (human)
[7] = target: E-cadherin-Fc K28A (human)
[8] = target: E-cadherin-Fc K30A (human)
[9] = target: E-cadherin-Fc K33A (human)
[10] = target: E-cadherin-Fc KEG30-32RDT (human) (UniProt P12830)
[11] = target: E-cadherin-Fc N27A (human)
[12] = target: E-cadherin-Fc N86A (human)
[13] = target: E-cadherin-Fc S83A (human) (UniProt P12830)
[14] = target: Purified human IgG1 (human)

adhesion as percent of wild type (% of wild-type) [1]: > 82 | percent of cells bound [1]: 59% | adhesion as percent of wild type (% of wild-type) [2]: < 2 | adhesion as percent of wild type (% of wild-type) [3]: < 2 | adhesion as percent of wild type (% of wild-type) [4]: > 82 | percent of cells bound [4]: 60% | adhesion as percent of wild type (% of wild-type) [5]: 20 | percent of cells bound [5]: 12% | adhesion as percent of wild type (% of wild-type) [6]: > 82 | percent of cells bound [6]: 69% | adhesion as percent of wild type (% of wild-type) [7]: > 82 | percent of cells bound [7]: 58% | adhesion as percent of wild type (% of wild-type) [8]: > 82 | percent of cells bound [8]: 58% | adhesion as percent of wild type (% of wild-type) [9]: > 82 | percent of cells bound [9]: 60% | adhesion as percent of wild type (% of wild-type) [10]: < 2 | adhesion as percent of wild type (% of wild-type) [11]: > 82 | percent of cells bound [11]: 58% | adhesion as percent of wild type (% of wild-type) [12]: > 82 | percent of cells bound [12]: 57% | adhesion as percent of wild type (% of wild-type) [13]: > 82 | percent of cells bound [13]: 68%
Substance: Integrin αEβ7 on human IEL-496 T cells (from UniProt P38570 19-1179; P26010 20-798) (complex)

adhesion as percent of wild type (% of wild-type) [1]: 94 | percent of cells bound [2]: 41% | percent of cells bound [3]: 41% | adhesion as percent of wild type (% of wild-type) [4]: 90 | adhesion as percent of wild type (% of wild-type) [5]: 2 | adhesion as percent of wild type (% of wild-type) [6]: 76 | adhesion as percent of wild type (% of wild-type) [7]: 94 | adhesion as percent of wild type (% of wild-type) [8]: 99 | adhesion as percent of wild type (% of wild-type) [9]: 91 | adhesion as percent of wild type (% of wild-type) [11]: 62 | adhesion as percent of wild type (% of wild-type) [12]: 93 | adhesion as percent of wild type (% of wild-type) [13]: 105
Substance: E-cadherin on MCF-7 human breast epithelial cells (from UniProt P12830 155-882) (natural protein)

adhesion as percent of wild type (% of adhesion to wild-type) [1]: 105 | adhesion as percent of wild type (% of adhesion to wild-type) [4]: 102 | adhesion as percent of wild type (% of adhesion to wild-type) [6]: 87 | adhesion as percent of wild type (% of adhesion to wild-type) [7]: 79 | adhesion as percent of wild type (% of adhesion to wild-type) [8]: 53 | adhesion as percent of wild type (% of adhesion to wild-type) [9]: 104 | adhesion as percent of wild type (% of adhesion to wild-type) [11]: 57 | adhesion as percent of wild type (% of adhesion to wild-type) [12]: 86 | adhesion as percent of wild type (% of adhesion to wild-type) [13]: 80 | percent of cells bound [14]: < 1%
Substance: Integrin αEβ7 on K562 transfectants (K562-αEβ7) (from UniProt P38570 19-1179; P26010 20-798) (complex)
